Data: article PMC7935978

Tested on: FUS-Gal4
Assay: single-molecule (DNA curtains, koff/kon)
Settings: condensate-DNA interaction; protein label and DNA substrate inferred; 40 mM Tris-HCl pH 7.5, 150 mM KCl, 2 mM MgCl2, 1 mM DTT, 0.2 mg/ml BSA; EMSA 30 min at room temperature

## Lambda DNA + 7x Gal4 sites
  Kd: 0.8 nM
